According to the supplement of paper PMC11246515:
± gives the standard deviation of the averaged measurements.

Assay: total protein half-life in vivo (active degradation + dilution); higher = more stable protein
[1] = E. coli NCM3722 delta-clpP delta-lon delta-hslV, growth: N-lim chemostat, doubling time 6 h
[2] = E. coli NCM3722 delta-clpP, growth: N-lim chemostat, doubling time 6 h
[3] = E. coli NCM3722 delta-hslV, growth: N-lim chemostat, doubling time 6 h
[4] = E. coli NCM3722 delta-lon, growth: N-lim chemostat, doubling time 6 h
[5] = wild type E. coli NCM3722, growth: C-lim chemostat, doubling time 3 h
[6] = wild type E. coli NCM3722, growth: C-lim chemostat, doubling time 6 h
[7] = wild type E. coli NCM3722, growth: C-lim chemostat, doubling time 12 h
[8] = wild type E. coli NCM3722, growth: N-lim chemostat, doubling time 6 h
[9] = wild type E. coli NCM3722, growth: N-lim chemostat, doubling time 12 h
[10] = wild type E. coli NCM3722, growth: P-lim chemostat, doubling time 6 h
[11] = wild type E. coli NCM3722, growth: P-lim chemostat, doubling time 12 h

MGTTTMGVKLDDATRERIKSAATRIDRTPHWLIKQAIFSYLEQLENSDTLPELPALLSGAANESDEAPTPAEEPHQPFLDFAEQILPQSVSRAAITAAYRRPETEAVSMLLEQARLPQPVAEQAHKLAYQLADKLRNQKNASGRAGMVQGLLQEFSLSSQEGVALMCLAEALLRIPDKATRDALIRDKISNGNWQSHIGRSPSLFVNAATWGLLFTGKLVSTHNEASLSRSLNRIIGKSGEPLIRKGVDMAMRLMGEQFVTGETIAEALANARKLEEKGFRYSYDMLGEAALTAADAQAYMVSYQQAIHAIGKASNGRGIYEGPGISIKLSALHPRYSRAQYDRVMEELYPRLKSLTLLARQYDIGINIDAEESDRLEISLDLLEKLCFEPELAGWNGIGFVIQAYQKRCPLVIDYLIDLATRSRRRLMIRLVKGAYWDSEIKRAQMDGLEGYPVYTRKVYTDVSYLACAKKLLAVPNLIYPQFATHNAHTLAAIYQLAGQNYYPGQYEFQCLHGMGEPLYEQVTGKVADGKLNRPCRIYAPVGTHETLLAYLVRRLLENGANTSFVNRIADTSLPLDELVADPVTAVEKLAQQEGQTGLPHPKIPLPRDLYGHGRDNSAGLDLANEHRLASLSSALLNSALQKWQALPMLEQPVAAGEMSPVINPAEPKDIVGYVREATPREVEQALESAVNNAPIWFATPPAERAAILHRAAVLMESQMQQLIGILVREAGKTFSNAIAEVREAVDFLHYYAGQVRDDFANETHRPLGPVVCISPWNFPLAIFTGQIAAALAAGNSVLAKPAEQTPLIAAQGIAILLEAGVPPGVVQLLPGRGETVGAQLTGDDRVRGVMFTGSTEVATLLQRNIASRLDAQGRPIPLIAETGGMNAMIVDSSALTEQVVVDVLASAFDSAGQRCSALRVLCLQDEIADHTLKMLRGAMAECRMGNPGRLTTDIGPVIDSEAKANIERHIQTMRSKGRPVFQAVRENSEDAREWQSGTFVAPTLIELDDFAELQKEVFGPVLHVVRYNRNQLPELIEQINASGYGLTLGVHTRIDETIAQVTGSAHVGNLYVNRNMVGAVVGVQPFGGEGLSGTGPKAGGPLYLYRLLANRPESALAVTLARQDAKYPVDAQLKAALTQPLNALREWAANRPELQALCTQYGELAQAGTQRLLPGPTGERNTWTLLPRERVLCIADDEQDALTQLAAVLAVGSQVLWPDDALHRQLVKALPSAVSERIQLAKAENITAQPFDAVIFHGDSDQLRALCEAVAARDGTIVSVQGFARGESNILLERLYIERSLSVNTAAAGGNASLMTIG
total protein half-life in vivo [1]: 5.93 ± 0.7 h | total protein half-life in vivo [2]: 5.68 ± 0.72 h | total protein half-life in vivo [3]: 2.39 ± 0.14 h | total protein half-life in vivo [4]: 2.81 ± 0.3 h | total protein half-life in vivo (E. coli NCM3722 delta-smpB, growth: N-lim chemostat, doubling time 6 h): 2.34 ± 0.047 h | total protein half-life in vivo [5]: 2.08 ± 0.093 h | total protein half-life in vivo [6]: 3.5 ± 0.57 h | total protein half-life in vivo [7]: 4.276 ± 0.022 h | total protein half-life in vivo [8]: 2.64 ± 0.23 h | total protein half-life in vivo [9]: 3.8 ± 0.28 h | total protein half-life in vivo [10]: 2.46 ± 0.32 h | total protein half-life in vivo [11]: 4.246 ± 0.04 h

MQESIQLVIDSLPFLLKGAGYTLQLSIGGMFFGLLLGFILALMRLSPIWPVRWLARFYISIFRGTPLIAQLFMIYYGLPQFGIELDPIPSAMIGLSLNTAAYAAETLRAAISSIDKGQWEAAASIGMTPWQTMRRAILPQAARVALPPLSNSFISLVKDTSLAATIQVPELFRQAQLITSRTLEVFTMYLAASLIYWIMATVLSTLQNHFENQLNRQEREPK [P0AFT2]
total protein half-life in vivo [2]: 7.13 h | total protein half-life in vivo [3]: 7.23 h | total protein half-life in vivo [5]: 3.14 h | total protein half-life in vivo [6]: 5.37 ± 0.3 h | total protein half-life in vivo [7]: 15.7 ± 0.28 h | total protein half-life in vivo [8]: 6.07 ± 0.14 h | total protein half-life in vivo [9]: 11.2 ± 4.2 h | total protein half-life in vivo [10]: 6 ± 0.41 h | total protein half-life in vivo [11]: 11.9 ± 0.19 h

MIINNVKLVLENEVVSGSLEVQNGEIRAFAESQSRLPEAMDGEGGWLLPGLIELHTDNLDKFFTPRPKVDWPAHSAMSSHDALMVASGITTVLDAVAIGDVRDGGDRLENLEKMINAIEETQKRGVNRAEHRLHLRCELPHHTTLPLFEKLVQREPVTLVSLMDHSPGQRQFANREKYREYYQGKYSLTDAQMQQYEEEQLALAARWSQPNRESIAALCRARKIALASHDDATHAHVAESHQLGSVIAEFPTTFEAAEASRKHGMNVLMGAPNIVRGGSHSGNVAASELAQLGLLDILSSDYYPASLLDAAFRVADDQSNRFTLPQAVKLVTKNPAQALNLQDRGVIGEGKRADLVLAHRKDNHIHIDHVWRQGKRVF
total protein half-life in vivo [10]: 1.05 ± 0.23 h | total protein half-life in vivo [11]: 1.89 ± 0.87 h

MNTLTFLLSTVIELYTMVLLLRIWMQWAHCDFYNPFSQFVVKVTQPIIGPLRRVIPAMGPIDSASLLVAYILSFIKAIVLFKVVTFLPIIWIAGLLILLKTIGLLIFWVLLVMAIMSWVSQGRSPIEYVLIQLADPLLRPIRRLLPAMGGIDFSPMILVLLLYVINMGVAEVLQATGNMLLPGLWMAL
total protein half-life in vivo [1]: 6.46 h | total protein half-life in vivo [3]: 5.6 h | total protein half-life in vivo [4]: 6.12 h | total protein half-life in vivo [5]: 2.92 h | total protein half-life in vivo [7]: 10.6 h | total protein half-life in vivo [10]: 5.07 h | total protein half-life in vivo [11]: 8.69 h
